As a reminder, the Kd is a measure of binding affinity in units of concentration.

The target of assay [1] is T1, human GPR20 protein (human, UniProt Q99678 1-358).
T1 construct: membrane fraction on SDS-PAGE for the Western blot; The same entry is used for the endogenous GPR20 stained in GIST cell lines and clinical GIST tissue; also called hGPR20; G protein-coupled receptor 20
As to the kind of experiment: immunohistochemistry on paraffin-embedded GIST430 and GIST430/654 preparations, PC-3 as GPR20-negative control, DAB.
Description: Deparaffinization and antigen retrieval were carried out at 97° C. for 40 minutes with an antigen retrieval solution (Target Retrieval Solution High pH; manufactured by Dako/Agilent Technologies Inc.) using a pretreatment system for Autostainer Link (PT Link; manufactured by Dako/Agilent Technologies Inc.). Subsequent staining procedures were carried out at room temperature using an automatic staining apparatus (Dako Autostainer Link 48; manufactured by Dako/Agilent Technologies Inc.). After washing once with EnVision FLEX WASH BUFFER (manufactured by Dako/Agilent Technologies Inc.), Peroxidase Block 3% H2O2 (manufactured by Dako/Agilent Technologies Inc.) was added to the cells, which were then incubated for 5 minutes and washed once with EnVision FLEX WASH BUFFER. Protein Block serum free (manufactured by Dako/Agilent Technologies Inc.) was added to the cells, which were then incubated for 30 minutes. The solution was removed by air blow. A rat monoclonal anti-GPR20 antibody, a rabbit chimeric anti-GPR20 antibody or a rabbit type anti-GPR20 antibody was diluted into 1.0 μg/mL to 10 μg/mL with REAL Antibody Diluent (manufactured by Dako/Agilent Technologies Inc.) and reacted with the cells for 30 minutes.
DAKO Liquid DAB+Substrate Chromogen System was added to the cells, which were then incubated for a total of 10 minutes and then washed once with EnVision FLEX WASH BUFFER. EnVision FLEX Hematoxylin was added to the cells, which were incubated for 5 minutes and then washed a total of three times with EnVision FLEX WASH BUFFER and ion-exchanged water.

Assay [2] deals with T2, GPR20 fragment peptide GLEVPLFHLFARLDEELHGT (human, N-terminally biotinylated and C-terminally amidated).
T2 construct: Captured on streptavidin sensor chips; also called peptide consisting of amino acid positions 29 to 48 of GPR20
T2 peptide: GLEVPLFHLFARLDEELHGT
Put plainly: BLI (Octet RED384), peptide on streptavidin sensor, antibody as analyte, 1:1 model. An excerpt:
(§1) For the detailed analysis of the epitope, a peptide consisting of amino acid positions 29 to 48 of GPR20, and peptides in which a terminal amino acid residue was continuously truncated one by one from this peptide, were synthesized, and then N-terminally biotinylated and C-terminally amidated to produce a GPR20 fragment peptide library (Sigma-Aldrich Japan G.K.). […] PBS-T was used as a buffer solution, and the sensor chips used were streptavidin sensor chips (manufactured by Pall ForteBio Corp.). […] Subsequently, the sensor chip was dipped in the buffer solution, and a dissociation phase was monitored for 270 seconds. […] The data was analyzed using 1:1 binding models to calculate association rate constant ka, dissociation rate constant kd and dissociation constant KD (KD=kd/ka).

Assay [3] concerns the target T3, GPR20 fragment peptide GLEVPLFHLFARLDEE (human, SMILES …).
T3 construct: Captured on streptavidin sensor chips
T3 peptide: Biotin-GLEVPLFHLFARLDEE-NH2
The description is as above.
Excerpt: as §1

Assay [4] deals with T4, GPR20 fragment peptide GLEVPLFHLFARLDE (human, SMILES …).
T4 construct: Captured on streptavidin sensor chips
T4 peptide: Biotin-GLEVPLFHLFARLDE-NH2
The assay is described as above.
Excerpt: as §1

The target of assay [5] is T5, GPR20 fragment peptide GLEVPLFHLFARLD (human, SMILES …).
T5 construct: Captured on streptavidin sensor chips
T5 peptide: Biotin-GLEVPLFHLFARLD-NH2
The description is as above.
Excerpt: as §1

Assay [6] deals with T6, GPR20 fragment peptide GLEVPLFHLFARL (human, SMILES …).
T6 construct: Captured on streptavidin sensor chips
T6 peptide: Biotin-GLEVPLFHLFARL-NH2
Described as above.
Excerpt: as §1

In assay [7] the target is T7, GPR20 fragment peptide GLEVPLFHLFAR (human, SMILES …).
T7 construct: Captured on streptavidin sensor chips
T7 peptide: Biotin-GLEVPLFHLFAR-NH2
Described as above.
Excerpt: as §1

Assay [8] deals with T8, GPR20 fragment peptide GLEVPLFHLFARLDEEL (human, SMILES …).
T8 construct: Captured on streptavidin sensor chips
T8 peptide: Biotin-GLEVPLFHLFARLDEEL-NH2
The assay is described as above.
Excerpt: as §1

Assay [9] addresses T9, GPR20 fragment peptide LEVPLFHLFARLDEEL (human, SMILES …).
T9 construct: Captured on streptavidin sensor chips
T9 peptide: Biotin-LEVPLFHLFARLDEEL-NH2
The assay is described as above.
Excerpt: as §1

For assay [10], the target named is T10, GPR20 fragment peptide EVPLFHLFARLDEEL (human, SMILES …).
T10 construct: Captured on streptavidin sensor chips
T10 peptide: Biotin-EVPLFHLFARLDEEL-NH2
The description is as above.
Excerpt: as §1

The target of assay [11] is T11, GPR20 fragment peptide VPLFHLFARLDEEL (human, SMILES …).
T11 construct: Captured on streptavidin sensor chips
T11 peptide: Biotin-VPLFHLFARLDEEL-NH2
The description is as above.
Excerpt: as §1

Assay [12] concerns the target T12, C-terminally biotinylated synthetic peptide 1 consisting of amino acids at positions 1 to 48 from the … (human, C-terminally biotinylated).
T12 construct: Captured on NeutrAvidin plates
T12 peptide: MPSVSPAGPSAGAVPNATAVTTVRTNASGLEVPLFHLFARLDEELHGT
Put plainly: peptide-ELISA, biotinylated peptide on NeutrAvidin plate, antibody at 1 µg/mL, anti-rat IgG-peroxidase, chemiluminescence. On the technique in general: An ELISA detects its analyte on a solid surface through an enzyme-linked reagent.
Description: NeutrAvidin (Pierce/Thermo Fisher Scientific Inc.) diluted to 1 μg/mL with PBS was added at 100 μL/well to 96-well Maxisorp plate (Nunc), and the plate was left standing overnight at 4° C. The solution was removed, and the plate was washed three times with 300 μL/well of PBS containing 0.05% Tween 20 (hereinafter, referred to as PBST). […] The plate was left standing at room temperature for 1 hour. The solution was removed from the plate, and each well was washed three times with PBST. Then, Blocker Casein in PBS (Thermo Fisher Scientific Inc.) was added at 100 μL/well, and the plate was left standing overnight at room temperature. The solution was removed, and each well was washed three times with PBST. […] The solution was removed, and each well was washed three times with PBST. Then, Anti-Rat IgG-Peroxidase antibody produced in rabbit (Jackson ImmunoResearch Laboratories, Inc.) 500-fold diluted with PBS was added at 100 μL/well, and the plate was left standing at room temperature for 1 hour. The solution was removed, and each well was washed three times with PBST. Then, SuperSignal ELISA Pico Chemiluminescent Substrate was added at 100 μl/well, and the plate was left standing at room temperature for 10 minutes, followed by the measurement of chemiluminescence using a plate reader (SpectraMax M3, Molecular Devices, LLC).

Assay [13] deals with T13, synthetic peptide 2 consisting of amino acid positions 30 to 48 of human GPR20 (human, also: biotinylated, position not given here).
T13 construct: Captured on NeutrAvidin plates
T13 peptide: LEVPLFHLFARLDEELHGT
The assay is described as above.

Assay [14] has as its target T1, human GPR20 protein. As to the kind of experiment: flow cytometry, hybridoma culture supernatant on 293T cells transiently expressing human GPR20 versus empty-vector 293T cells, anti-rat IgG FITC. As to the method:
The cells were left standing at 4° C. for 1 hour. […] The cells were left standing at 4° C. for 1 hour.

Where no end group is shown, it is not given here. The star is where a group is joined. Biotin = O=C1N[C@H]2[C@H](CS[C@H]2CCCCC(=O)*)N1 A value given as a limit tells only on which side of the number the result lay.

B1: rabbit chimeric anti-GPR20 antibody OcChimera (antibody)
heavy: EVQLVESGGGLVQPGRSLKLSCVASGFTFNNYWMTWIRQAPGKGLEWVASITNIDGSSYYPDSVKGRFTISRDNVKSTLYLQMNSLRSEDTATYYCTRGSFDYWGQGVMVTVSSGQPKAPSVFPLAPCCGDTPSSTVTLGCLVKGYLPEPVTVTWNSGTLTNGVRTFPSVRQSSGLYSLSSVVSVTSSSQPVTCNVAHPATNTKVDKTVAPSTCSKPTCPPPELLGGPSVFIFPPKPKDTLMISRTPEVTCVVVDVSQDDPEVQFTWYINNEQVRTARPPLREQQFNSTIRVVSTLPITHQDWLRGKEFKCKVHNKALPAPIEKTISKARGQPLEPKVYTMGPPREELSSRSVSLTCMINGFYPSDISVEWEKNGKAEDNYKTTPAVLDSDGSYFLYNKLSVPTSEWQRGDVFTCSVMHEALHNHYTQKSISRSPGK
light: DIQMTQSPSVLSASVGDRVTLNCKASQNVNKYLNWFQQKLGEPPKLLIYNTNNLQTGIPSRFSGSGSGTDYTLTISSLQPEDVATYFCFQHVSWLTFGSGTKLEIKRDPVAPSVLLFPPSKEELTTGTATIVCVANKFYPSDITVTWKVDGTTQQSGIENSKTPQSPEDNTYSLSSTLSLTSAQYNSHSVYTCEVVQGSASPIVQSFNRGDC
notes: 04-093 variable regions on rabbit IGHG*02 and IGKC2*01 constant regions; also called rabbit chimeric antibody; OcHch/OcLch
With B1, the binding result in the assay with human GPR20 protein [1] was “binds”.

B2: rabbit type anti-GPR20 antibody OcH1L1 (antibody, V domains shown)
VH: EVQLKESGGGLVKPGGSLKLCCKASGFTFNNYWMTWIRQAPGKGLEWIASITNIDGSSYYASWVNGRFTLSRDNAQSTVCLQLNSLTAADTATYFCTRGSFDYWGQGTLVTVSS
VL: DIVMTQTPSPVSAAVGGTVTINCKASQNVNKYLNWFQQKPGQPPKLLIYNTNNLQTGVPSRFSGSGSGTDYTLTISGVQCDDAATYYCFQHVSWLTFGGGTEVVVKG
notes: CDR-grafted rabbit type form of 04-093; also called OcH01/OcL01
With B2, the binding result in the assay with human GPR20 protein [1] was “binds”.

B3: rabbit type anti-GPR20 antibody OcH2L1 (antibody, V domains shown)
VH: EVQLKESGGGLVKPGGSLKLSCKASGFTFNNYWMTWIRQAPGKGLEWIASITNIDGSSYYPDSVKGRFTISRDNAQSTLYLQLNSLTAADTATYFCTRGSFDYWGQGTLVTVSS
VL: DIVMTQTPSPVSAAVGGTVTINCKASQNVNKYLNWFQQKPGQPPKLLIYNTNNLQTGVPSRFSGSGSGTDYTLTISGVQCDDAATYYCFQHVSWLTFGGGTEVVVKG
notes: CDR-grafted rabbit type form of 04-093; also called OcH02/OcL01
Turning to B3, the binding result with human GPR20 protein [1] is “binds”.

B4: rat anti-human GPR20 antibody 04-093 (antibody, rat IgG2b)
heavy: EVQLVESGGGLVQPGRSLKLSCVASGFTFNNYWMTWIRQAPGKGLEWVASITNIDGSSYYPDSVKGRFTISRDNVKSTLYLQMNSLRSEDTATYYCTRGSFDYWGQGVMVTVSSAQTTAPSVYPLAPGCGDTTSSTVTLGCLVKGYFPEPVTVTWNSGALSSDVHTFPAVLQSGLYTLTSSVTSSTWPSQTVTCNVAHPASSTKVDKKVERRNGGIGHKCPTCPTCHKCPVPELLGGPSVFIFPPKPKDILLISQNAKVTCVVVDVSEEEPDVQFSWFVNNVEVHTAQTQPREEQYNSTFRVVSALPIQHQDWMSGKEFKCKVNNKALPSPIEKTISKPKGLVRKPQVYVMGPPTEQLTEQTVSLTCLTSGFLPNDIGVEWTSNGHIEKNYKNTEPVMDSDGSFFMYSKLNVERSRWDSRAPFVCSVVHEGLHNHHVEKSISRPPGK
light: DIQMTQSPSVLSASVGDRVTLNCKASQNVNKYLNWFQQKLGEPPKLLIYNTNNLQTGIPSRFSGSGSGTDYTLTISSLQPEDVATYFCFQHVSWLTFGSGTKLEIKRADAAPTVSIFPPSTEQLATGGASVVCLMNNFYPRDISVKWKIDGTERRDGVLDSVTDQDSKDSTYSMSSTLSLTKADYESHNLYTCEVVHKTSSSPVVKSFNRNEC
notes: Rat IgG2b, kappa, from a hybridoma; the full-length chains were made by linking them to known rat constant regions (IMGT IGHG2B*01, IGKC*01); also called 04-093 antibody; rat anti-GPR20 antibody 04-093
On to B4, for which the Kd in [2] is under 0.001 nM; in assay [3], under 0.001 nM; in assay [4], under 0.001 nM; in [5], under 0.001 nM; in [6] it was 1.1 nM; in assay [7], 13 nM. For the same molecule, the equilibrium dissociation constant (Kd) was under 0.001 nM in assay [8], under 0.001 nM in assay [9], 1.1 nM in assay [10] and 5.7 nM in [11]. Also, the binding result (in [12]; in [13]; in the assay with human GPR20 protein [14]) was “binds” throughout.

The record behind these values is patent US20200017583A1 (Daiichi Sankyo, published 2020).
